Source: article PMC9482650, “Quantitative fragmentomics allow affinity mapping of interactomes” (Nature Communications, 2022)

Tests used:
Assay in all cases: holdup assay
Design in all cases: key: below the threshold = too weak to quantify, mostly under pKd 3.1 to 4
DFNB31_3, Q9P202 = target: T1, DFNB31_3, Q9P202
T1 sequence (Q9P202 811-907, limits assumed, looked up): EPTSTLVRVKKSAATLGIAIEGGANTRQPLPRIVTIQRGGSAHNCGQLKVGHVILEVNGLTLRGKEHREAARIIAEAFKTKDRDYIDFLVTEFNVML

DLG1_1, Q12959 = target: DLG1_1, Q12959
PDLIM1, O00151 = target: PDLIM1, O00151
Inadl_2, Q8NI35 = target: Inadl_2, Q8NI35
Inadl_6, Q8NI35 = target: Inadl_6, Q8NI35
GRASP, Q7Z6J2 = target: GRASP, Q7Z6J2
GRID2IP_1, A4D2P6 = target: GRID2IP_1, A4D2P6
NHERF4_1, Q86UT5-2 = target: NHERF4_1, Q86UT5-2
PDZRN4_1, Q6ZMN7 = target: PDZRN4_1, Q6ZMN7
Inadl_10, Q8NI35 = target: Inadl_10, Q8NI35
ARHGEF12, Q9NZN5-2 = target: ARHGEF12, Q9NZN5-2
TIAM2, Q8IVF5 = target: T2, TIAM2, Q8IVF5
T2 sequence (Q8IVF5 885-986, limits assumed, looked up): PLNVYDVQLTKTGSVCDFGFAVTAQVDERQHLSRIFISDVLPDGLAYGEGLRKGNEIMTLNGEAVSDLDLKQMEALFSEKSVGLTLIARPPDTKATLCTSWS

NHERF3_1, Q5T2W1 = target: T3, NHERF3_1, Q5T2W1
T3 sequence (Q5T2W1 4-100, limits assumed, looked up): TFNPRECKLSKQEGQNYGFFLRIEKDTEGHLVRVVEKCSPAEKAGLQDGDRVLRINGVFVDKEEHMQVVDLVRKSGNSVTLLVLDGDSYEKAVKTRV

Inadl_8, Q8NI35 = target: Inadl_8, Q8NI35
LDB3, O75112 = target: LDB3, O75112
APBA2_2, Q99767 = target: T4, APBA2_2, Q99767
T4 sequence (Q99767 654-744, limits assumed, looked up): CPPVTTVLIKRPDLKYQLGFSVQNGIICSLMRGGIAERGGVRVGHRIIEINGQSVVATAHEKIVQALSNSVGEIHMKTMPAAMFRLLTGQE

RADIL, Q96JH8 = target: T5, RADIL, Q96JH8
T5 sequence (Q96JH8 971-1071, limits assumed, looked up): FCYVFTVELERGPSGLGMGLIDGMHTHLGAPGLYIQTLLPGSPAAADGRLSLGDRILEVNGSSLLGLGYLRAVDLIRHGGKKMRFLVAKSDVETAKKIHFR

NHERF3_3, Q5T2W1 = target: T6, NHERF3_3, Q5T2W1
T6 sequence (Q5T2W1 238-333, limits assumed, looked up): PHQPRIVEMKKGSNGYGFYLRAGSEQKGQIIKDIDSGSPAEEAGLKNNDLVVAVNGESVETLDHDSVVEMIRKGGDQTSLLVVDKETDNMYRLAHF

LIN7B, Q9HAP6 = target: T7, LIN7B, Q9HAP6
T7 sequence (Q9HAP6 88-185, limits assumed, looked up): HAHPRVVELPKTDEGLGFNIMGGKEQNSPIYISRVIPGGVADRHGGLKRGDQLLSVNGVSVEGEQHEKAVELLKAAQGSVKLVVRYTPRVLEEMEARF

RHPN1, Q8TCX5 = target: T8, RHPN1, Q8TCX5
T8 sequence (Q8TCX5 508-602, limits assumed, looked up): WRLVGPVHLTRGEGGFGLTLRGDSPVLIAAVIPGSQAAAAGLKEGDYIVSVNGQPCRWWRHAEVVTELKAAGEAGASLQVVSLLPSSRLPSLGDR

GIPC2, Q8TF65 = target: GIPC2, Q8TF65
MAGI2_2, Q86UL8 = target: MAGI2_2, Q86UL8
ARHGAP21, Q5T5U3 = target: T9, ARHGAP21, Q5T5U3
T9 sequence (Q5T5U3 45-169, limits assumed, looked up): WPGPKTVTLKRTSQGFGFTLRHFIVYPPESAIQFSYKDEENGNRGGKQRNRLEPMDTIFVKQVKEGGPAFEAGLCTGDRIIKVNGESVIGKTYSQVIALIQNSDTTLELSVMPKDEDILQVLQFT

DLG2_2, Q15700 = target: DLG2_2, Q15700
DLG1_2, Q12959 = target: DLG1_2, Q12959
MPP2, Q14168 = target: T10, MPP2, Q14168
T10 sequence (Q14168 180-250, limits assumed, looked up): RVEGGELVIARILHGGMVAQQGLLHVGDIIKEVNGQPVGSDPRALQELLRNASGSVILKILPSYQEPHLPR

DLG5_1, Q8TDM6 = target: DLG5_1, Q8TDM6
[1] = plain residues with an end cap or a label only (N-terminal biotin on a linker: ahx)
[2] = plain residues with an end cap or a label only (N-terminal biotin on a linker: ado-ado)

DLG2_2, Q15700, sequence (Q15700 189-283): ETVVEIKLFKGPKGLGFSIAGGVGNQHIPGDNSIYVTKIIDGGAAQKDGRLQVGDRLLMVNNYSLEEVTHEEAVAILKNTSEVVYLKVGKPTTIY
ARHGEF12, Q9NZN5-2, sequence (Q9NZN5 other isoform, or with tags, fused parts or gaps): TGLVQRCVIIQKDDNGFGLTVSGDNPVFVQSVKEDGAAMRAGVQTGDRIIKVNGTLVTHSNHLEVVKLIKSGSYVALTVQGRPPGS
GIPC2, Q8TF65, sequence (Q8TF65 112-203): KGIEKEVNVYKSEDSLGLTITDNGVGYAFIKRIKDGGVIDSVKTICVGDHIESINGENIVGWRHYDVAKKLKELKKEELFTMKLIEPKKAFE
NHERF4_1, Q86UT5-2, sequence (Q86UT5 other isoform, or with tags, fused parts or gaps): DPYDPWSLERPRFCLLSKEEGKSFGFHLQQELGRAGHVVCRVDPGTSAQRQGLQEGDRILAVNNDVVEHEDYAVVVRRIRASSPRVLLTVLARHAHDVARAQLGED
DLG5_1, Q8TDM6, sequence (Q8TDM6 617-713): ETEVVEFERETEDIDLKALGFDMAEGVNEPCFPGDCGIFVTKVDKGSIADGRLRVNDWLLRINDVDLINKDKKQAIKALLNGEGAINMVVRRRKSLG
Inadl_6, Q8NI35, sequence (Q8NI35 1058-1167): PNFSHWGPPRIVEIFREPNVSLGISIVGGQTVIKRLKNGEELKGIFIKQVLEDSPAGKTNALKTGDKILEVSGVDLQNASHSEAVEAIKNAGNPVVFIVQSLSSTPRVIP
GRASP, Q7Z6J2, sequence (Q7Z6J2 96-193): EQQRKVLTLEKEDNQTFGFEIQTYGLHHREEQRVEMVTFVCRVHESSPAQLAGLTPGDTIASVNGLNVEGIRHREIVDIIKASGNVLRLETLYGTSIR
MAGI2_2, Q86UL8, sequence (Q86UL8 410-522): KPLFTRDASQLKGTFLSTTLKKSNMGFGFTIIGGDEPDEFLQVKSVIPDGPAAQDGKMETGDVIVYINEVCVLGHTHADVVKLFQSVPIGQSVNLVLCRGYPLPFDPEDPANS
PDZRN4_1, Q6ZMN7, sequence (Q6ZMN7 213-318): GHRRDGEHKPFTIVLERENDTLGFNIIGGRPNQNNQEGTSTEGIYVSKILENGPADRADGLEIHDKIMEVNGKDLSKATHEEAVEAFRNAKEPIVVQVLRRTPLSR
Inadl_2, Q8NI35, sequence (Q8NI35 238-335): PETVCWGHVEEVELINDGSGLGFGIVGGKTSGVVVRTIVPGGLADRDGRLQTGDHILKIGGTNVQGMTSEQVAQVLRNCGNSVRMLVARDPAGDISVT
LDB3, O75112, sequence (O75112 1-94): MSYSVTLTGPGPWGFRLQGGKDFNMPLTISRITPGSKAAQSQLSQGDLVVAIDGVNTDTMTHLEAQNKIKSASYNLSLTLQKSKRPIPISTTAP
Inadl_10, Q8NI35, sequence (Q8NI35 1673-1763): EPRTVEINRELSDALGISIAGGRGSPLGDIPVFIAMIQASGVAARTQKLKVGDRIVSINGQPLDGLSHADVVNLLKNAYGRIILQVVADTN
Inadl_8, Q8NI35, sequence (Q8NI35 1425-1530): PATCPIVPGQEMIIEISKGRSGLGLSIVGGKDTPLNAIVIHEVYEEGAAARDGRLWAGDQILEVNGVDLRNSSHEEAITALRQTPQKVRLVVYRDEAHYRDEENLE
PDLIM1, O00151, sequence (O00151 1-87): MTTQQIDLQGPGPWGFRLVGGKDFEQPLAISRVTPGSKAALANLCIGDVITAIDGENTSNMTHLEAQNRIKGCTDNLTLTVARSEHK
GRID2IP_1, A4D2P6, sequence (A4D2P6 1-87): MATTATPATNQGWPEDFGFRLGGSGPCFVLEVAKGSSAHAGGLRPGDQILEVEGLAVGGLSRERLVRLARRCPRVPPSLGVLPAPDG

B1: HPV49-L2, P36762 (peptide)
chain: RRRKRKRTYL
Binder B1 has a pKd (DFNB31_3, Q9P202; [1]) of 4.25, a pKd (DLG1_1, Q12959; [1]) of 3.49 and a pKd (PDLIM1, O00151; [1]) of 3.52. The pKd (Inadl_2, Q8NI35; [1]) was “below the threshold”, the pKd (Inadl_6, Q8NI35; [1]) was “below the threshold” and the pKd (GRASP, Q7Z6J2; [1]) was 4.37. For the same binder, the pKd (GRID2IP_1, A4D2P6; [1]) was “below the threshold”, the pKd (NHERF4_1, Q86UT5-2; [1]) was 4.69 and the pKd (PDZRN4_1, Q6ZMN7; [1]) was 3.55. For the same binder, the pKd (Inadl_10, Q8NI35; [1]) was “below the threshold”, the pKd (ARHGEF12, Q9NZN5-2; [1]) was 4.68 and the pKd (TIAM2, Q8IVF5; [1]) was “below the threshold”. For the same binder, the pKd (NHERF3_1, Q5T2W1; [1]) was 4.86, the pKd (Inadl_8, Q8NI35; [1]) was 4.11 and the pKd (LDB3, O75112; [1]) was “below the threshold”. For the same binder, the pKd (APBA2_2, Q99767; [1]) was “below the threshold”, the pKd (RADIL, Q96JH8; [1]) was “below the threshold” and the pKd (NHERF3_3, Q5T2W1; [1]) was 4.18. The pKd (LIN7B, Q9HAP6; [1]) was “below the threshold”, the pKd (RHPN1, Q8TCX5; [1]) was 3.51 and the pKd (GIPC2, Q8TF65; [1]) was “below the threshold”. For the same binder, the pKd (MAGI2_2, Q86UL8; [1]) was 5.33, the pKd (ARHGAP21, Q5T5U3; [1]) was 3.6 and the pKd (DLG2_2, Q15700; [1]) was 4.58. The pKd (DLG1_2, Q12959; [1]) was 3.82, the pKd (MPP2, Q14168; [1]) was 3.74 and the pKd (DLG5_1, Q8TDM6; [1]) was “below the threshold”.

B2: TRIM50, Q86XT4 (peptide)
chain: PLSPEQPTKL
B2 was tested, and the pKd (DFNB31_3, Q9P202; [2]) was 3.93, the pKd (DLG1_1, Q12959; [2]) was “below the threshold” and the pKd (PDLIM1, O00151; [2]) was “below the threshold”. For the same binder, the pKd (Inadl_2, Q8NI35; [2]) was “below the threshold”, the pKd (Inadl_6, Q8NI35; [2]) was “below the threshold” and the pKd (GRASP, Q7Z6J2; [2]) was 4. The pKd (GRID2IP_1, A4D2P6; [2]) was “below the threshold”, the pKd (NHERF4_1, Q86UT5-2; [2]) was 3.98 and the pKd (PDZRN4_1, Q6ZMN7; [2]) was “below the threshold”. The pKd (Inadl_10, Q8NI35; [2]) was “below the threshold”, the pKd (ARHGEF12, Q9NZN5-2; [2]) was “below the threshold” and the pKd (TIAM2, Q8IVF5; [2]) was “below the threshold”. For the same binder, the pKd (NHERF3_1, Q5T2W1; [2]) was 3.53, the pKd (Inadl_8, Q8NI35; [2]) was “below the threshold” and the pKd (LDB3, O75112; [2]) was “below the threshold”. The pKd (APBA2_2, Q99767; [2]) was “below the threshold”, the pKd (RADIL, Q96JH8; [2]) was “below the threshold” and the pKd (NHERF3_3, Q5T2W1; [2]) was “below the threshold”. For the same binder, the pKd (LIN7B, Q9HAP6; [2]) was “below the threshold”, the pKd (RHPN1, Q8TCX5; [2]) was “below the threshold” and the pKd (GIPC2, Q8TF65; [2]) was “below the threshold”. For the same binder, the pKd (MAGI2_2, Q86UL8; [2]) was “below the threshold”, the pKd (ARHGAP21, Q5T5U3; [2]) was “below the threshold” and the pKd (DLG2_2, Q15700; [2]) was “below the threshold”. For the same binder, the pKd (DLG1_2, Q12959; [2]) was “below the threshold”, the pKd (MPP2, Q14168; [2]) was “below the threshold” and the pKd (DLG5_1, Q8TDM6; [2]) was “below the threshold”.

B3: NHERF2, Q15599 (peptide)
chain: NRKREIFSNF
B3 was tested, and the pKd (DFNB31_3, Q9P202; [1]) was “below the threshold”, the pKd (DLG1_1, Q12959; [1]) was “below the threshold” and the pKd (PDLIM1, O00151; [1]) was “below the threshold”. For the same binder, the pKd (Inadl_2, Q8NI35; [1]) was “below the threshold”, the pKd (Inadl_6, Q8NI35; [1]) was “below the threshold” and the pKd (GRASP, Q7Z6J2; [1]) was “below the threshold”. The pKd (GRID2IP_1, A4D2P6; [1]) was “below the threshold”, the pKd (NHERF4_1, Q86UT5-2; [1]) was “below the threshold” and the pKd (PDZRN4_1, Q6ZMN7; [1]) was “below the threshold”. For the same binder, the pKd (Inadl_10, Q8NI35; [1]) was “below the threshold”, the pKd (ARHGEF12, Q9NZN5-2; [1]) was “below the threshold” and the pKd (TIAM2, Q8IVF5; [1]) was “below the threshold”. For the same binder, the pKd (NHERF3_1, Q5T2W1; [1]) was “below the threshold”, the pKd (Inadl_8, Q8NI35; [1]) was “below the threshold” and the pKd (LDB3, O75112; [1]) was “below the threshold”. For the same binder, the pKd (APBA2_2, Q99767; [1]) was “below the threshold”, the pKd (RADIL, Q96JH8; [1]) was “below the threshold” and the pKd (NHERF3_3, Q5T2W1; [1]) was “below the threshold”. The pKd (LIN7B, Q9HAP6; [1]) was “below the threshold”, the pKd (RHPN1, Q8TCX5; [1]) was “below the threshold” and the pKd (GIPC2, Q8TF65; [1]) was “below the threshold”. The pKd (MAGI2_2, Q86UL8; [1]) was “below the threshold”, the pKd (ARHGAP21, Q5T5U3; [1]) was “below the threshold” and the pKd (DLG2_2, Q15700; [1]) was “below the threshold”. For the same binder, the pKd (DLG1_2, Q12959; [1]) was “below the threshold”, the pKd (MPP2, Q14168; [1]) was “below the threshold” and the pKd (DLG5_1, Q8TDM6; [1]) was “below the threshold”.

B4: PSCDBP, O60759 (peptide)
chain: RAVEEEESRF
In the case of B4, the pKd (DFNB31_3, Q9P202; [1]) is reported as “below the threshold”, the pKd (DLG1_1, Q12959; [1]) is reported as “below the threshold” and the pKd (PDLIM1, O00151; [1]) is reported as “below the threshold”. For the same binder, the pKd (Inadl_2, Q8NI35; [1]) was “below the threshold”, the pKd (Inadl_6, Q8NI35; [1]) was “below the threshold” and the pKd (GRASP, Q7Z6J2; [1]) was “below the threshold”. The pKd (GRID2IP_1, A4D2P6; [1]) was “below the threshold”, the pKd (NHERF4_1, Q86UT5-2; [1]) was “below the threshold” and the pKd (PDZRN4_1, Q6ZMN7; [1]) was “below the threshold”. The pKd (Inadl_10, Q8NI35; [1]) was “below the threshold”, the pKd (ARHGEF12, Q9NZN5-2; [1]) was “below the threshold” and the pKd (TIAM2, Q8IVF5; [1]) was “below the threshold”. For the same binder, the pKd (NHERF3_1, Q5T2W1; [1]) was 4.34, the pKd (Inadl_8, Q8NI35; [1]) was “below the threshold” and the pKd (LDB3, O75112; [1]) was “below the threshold”. The pKd (APBA2_2, Q99767; [1]) was “below the threshold”, the pKd (RADIL, Q96JH8; [1]) was “below the threshold” and the pKd (NHERF3_3, Q5T2W1; [1]) was “below the threshold”. For the same binder, the pKd (LIN7B, Q9HAP6; [1]) was “below the threshold”, the pKd (RHPN1, Q8TCX5; [1]) was 4.44 and the pKd (GIPC2, Q8TF65; [1]) was “below the threshold”. The pKd (MAGI2_2, Q86UL8; [1]) was “below the threshold”, the pKd (ARHGAP21, Q5T5U3; [1]) was “below the threshold” and the pKd (DLG2_2, Q15700; [1]) was “below the threshold”. For the same binder, the pKd (DLG1_2, Q12959; [1]) was “below the threshold”, the pKd (MPP2, Q14168; [1]) was “below the threshold” and the pKd (DLG5_1, Q8TDM6; [1]) was “below the threshold”.
